Data as given in PMC4686654.

Tests used:
[1] = biological target: EGFP-RhoA (UniProt P61586); assay: fluorescence polarisation; 100 nM EGFP-RhoA.GDP titrated with Dbs; 20 mM Tris pH 7.4, 150 mM KCl, 1 mM TCEP, 2 mM MgCl2 (nucleotide-loaded RhoA); 25 °C
[2] = biological target: EGFP-RhoA (UniProt P61586); assay: fluorescence polarisation; 100 nM EGFP-RhoA.GDP titrated with Dbs; 20 mM Tris pH 7.4, 150 mM KCl, 1 mM TCEP, 1 mM EDTA (nucleotide-free RhoA); 25 °C

EGFP-RhoA, sequence (P61586 whole entry): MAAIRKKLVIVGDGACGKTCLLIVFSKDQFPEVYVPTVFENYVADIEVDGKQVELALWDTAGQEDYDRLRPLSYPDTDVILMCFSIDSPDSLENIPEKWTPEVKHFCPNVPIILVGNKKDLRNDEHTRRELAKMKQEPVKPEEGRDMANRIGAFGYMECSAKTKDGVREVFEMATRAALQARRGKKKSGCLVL

B1: guanine exchange factor Dbs 622-965 (domain or fragment)
chain: TGEEEESLAILRRHVMNELLDTERAYVEELLCVLEGYAAEMDNPLMAHLISTGLQNKKNILFGNMEEIYHFHNRNIPAGLESCIDCPELVGRCFLERMEEFQIYEKYCQNKPRSESLWRQCSDCPFFQECQKKLDHKLSLDSYLLKPVQRITKYQLLLKEMLKYSKHCEGAEDLQEALSSILGILKAVNDSMHLIAITGYDGNLGDLGKLLMQGSFSVWTDHKKGHTKVKELARFKPMQRHLFLHEKAVLFCKKREENGEGYEKAPSYSYKQSLNMTAVGITENVKGDTKKFEIWYNAREEVYIIQAPTPEIKAAWVNEIRKVLTSQLQACREASQHRALEQSH
Work on B1 yielded a Kd [1] of 21.2 µM and a Kd [2] of 0.354 µM.
